{"source": "patent US20210369837A1", "about": "“METHODS OF TREATING TIM-3 ELEVATION” (ADVANTAGENE, INC., priority 2016, published 2021)", "tested_on": "PD-L1", "assay": "Flow cytometry of PD-L1 protein expression after interferon treatment", "type": "cell-based, mouse", "settings": "CT2A and GL261 cells, day 4 post-treatment, IFN-β 1000 U/ml (FIGS. 5C-5F)", "method": "In another experiment, CT2A and GL261 cells were treated with IFN-β (1000 U/ml) (PBL Assay Science, Piscataway N.J.) and/or MAR-1-5A3 monoclonal antibody against IFNAR1 (BioXcel, West Lebanon, N.H.) ([…]). Cells were analyzed by flow cytometry for PD-L1 protein expression at day 4 post-treatment using either in the absence of specific antibody (isotype) or with PD-L1 specific antibody (BD Bioscience, San Jose, Calif.). Cells analyzed were either subjected to no treatment (untreated), or treated with INFα or INFβ.\nFIG. 5D and FIG. 5F show quantification of the percent of live cells analyzed by flow cytometry that express surface PD-L1 above baseline."}
{"molecule": "IFN-β: IFN-β (1000 U/ml) (PBL Assay Science) used to treat CT2A and GL261 cells (protein, UniProt P01575 22-182, looked up) Interferon beta: INYKQLQLQERTNIRKCQELLEQLNGKINLTYRADFKIPMEMTEKMQKSYTAFAIQEMLQNVFLVFRNNFSSTGWNETIVVRLLDELHQQTVFLKTVLEEKQEERLTWEMSSTALHLKSYYWRVQRYLKLMKYNSYAWMVVRAEIFRNFLIIRRLTRNFQN", "values": [{"measurement": "Surface expression of PD-L1 protein", "result": "increased surface expression of PD-L1 protein"}, {"measurement": "Surface expression of PD-L1 protein", "setting": "listed as INFβ", "result": "Increases in surface PD-L1 expression"}]}
